Data set [1] concerns the molecule itself. In words: ultracentrifugal molecular weight measurement of self-association.
Data set [2] concerns the molecule itself. In words: ultracentrifugal analysis of self-association: 28 kDa measured, 26 kDa predicted. The method, then:
An mKO protein solution with the composition consisting of 150 mM KCl and 50 mM HEPES-KOH (pH 7.4) was prepared. The molecular weight of mKO was determined by ultracentrifugal analysis. The above solution was centrifuged with an ultracentrifuge XL-1 (Beckman Coulter) at 25,000 rpm for 22 hours, so as to measure absorption at 540 nm around the maximum absorption (548 nm) of mKO. From the measurement results, the molecular weight of mKO was calculated to be 28 kDa (FIG. 3). This value was almost the same as 26 kDa predicted from the amino acid sequence, and thus it was confirmed that mKO exists in the form of a monomer.

B1: cmkeima 620 (other)
chain: MRGSHHHHHHGMASMTGGQQMGRDLYDDDDKDPMVSVIAKQMTYKVYMSGTVNGHYFEVEGDGKGKPYEGEQTVKLTVTKGGPLPFAWDILSPQFQYGSIPFTKYPEDIPDYFKQSFPEGYTWERSMNFEDGAVCTVSNDSSIQGNCFIYNVKISGENFPPNGPVMQKKTQGWEPSTERLFARDGMLIGNDYMALKLEGGGHYLCEFKSTYKAKKPVRMPGRHEIDRKLDVTSHNRDYTSVEQCEIAIARHSLLG
For B1, the binding result in data set [1] is given as “no binding”.

B2: monomerized Kusabira-Orange (mKO) (other)
chain: MVSVIKPEMKMRYYMDGSVNGHEFTIEGEGTGRPYEGHQEMTLRVTMAKGGPMPFAFDLVSHVFCYGHRPFTKYPEEIPDYFKQAFPEGLSWERSLEFEDGGSASVSAHISLRGNTFYHKSKFTGVNFPADGPIMQNQSVDWEPSTEKITASDGVLKGDVTMYLKLEGGGNHKCQFKTTYKAAKKILKMPGSHYISHRLVRKTEGNITELVEDAVAHS
notes: also called KO mutant
Turning to B2, in data set [2], the binding result was “no binding”.

The values are drawn from patent US20070292909A1 (RIKEN, published 2007).
